Measurements: article PMC9482650, “Quantitative fragmentomics allow affinity mapping of interactomes” (Nature Communications, 2022)

How the values were obtained:
Test in all cases: holdup assay
Set-up in all cases: key: below the threshold = too weak to quantify, mostly under pKd 3.1 to 4
[1] = biological target: ARHGEF12, Q9NZN5-2
[2] = biological target: LDB3, O75112
[3] = biological target: T1, LIN7B, Q9HAP6
T1 sequence (Q9HAP6 88-185, limits assumed, looked up): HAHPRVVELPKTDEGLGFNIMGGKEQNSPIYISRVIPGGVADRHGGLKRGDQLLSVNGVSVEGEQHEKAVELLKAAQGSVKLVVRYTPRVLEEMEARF

[4] = biological target: MAST2, Q6P0Q8
[5] = biological target: FRMPD2_1, Q68DX3
[6] = biological target: PDLIM1, O00151
[7] = biological target: T2, MPP6, Q9NZW5
T2 sequence (Q9NZW5 125-219, limits assumed, looked up): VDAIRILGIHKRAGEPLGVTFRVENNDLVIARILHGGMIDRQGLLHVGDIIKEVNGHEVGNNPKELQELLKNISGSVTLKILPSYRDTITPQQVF

[8] = biological target: SCRIB_2, Q14160
[9] = biological target: GRIP2_3, Q9C0E4
[10] = biological target: GORASP2, Q9H8Y8
[11] = biological target: T3, PDZRN3_1, Q9UPQ7
T3 sequence (Q9UPQ7 244-349, limits assumed, looked up): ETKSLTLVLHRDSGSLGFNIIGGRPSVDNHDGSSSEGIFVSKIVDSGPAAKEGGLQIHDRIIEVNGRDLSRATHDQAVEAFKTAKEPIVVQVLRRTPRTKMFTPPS

[12] = biological target: GRIP2_6, Q9C0E4
[13] = biological target: T4, NHERF3_4, Q5T2W1
T4 sequence (Q5T2W1 373-468, limits assumed, looked up): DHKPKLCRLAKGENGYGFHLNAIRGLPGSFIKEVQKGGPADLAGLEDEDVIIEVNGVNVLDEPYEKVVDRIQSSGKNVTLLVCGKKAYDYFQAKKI

[14] = biological target: LNX1_3, Q8TBB1
[15] = biological target: T5, HTRA4, P83105
T5 sequence (P83105 378-476, limits assumed, looked up): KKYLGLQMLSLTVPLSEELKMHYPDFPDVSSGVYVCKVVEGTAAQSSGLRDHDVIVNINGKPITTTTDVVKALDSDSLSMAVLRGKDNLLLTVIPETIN

[16] = biological target: TJP1_2, Q07157
[17] = biological target: T6, DLG3_1, Q92796
T6 sequence (Q92796 125-227, limits assumed, looked up): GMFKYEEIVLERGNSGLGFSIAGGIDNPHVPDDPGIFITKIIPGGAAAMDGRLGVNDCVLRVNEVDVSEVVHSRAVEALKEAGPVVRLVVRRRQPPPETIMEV

[18] = biological target: T7, TX1BP3, O14907
T7 sequence (O14907 10-122, limits assumed, looked up): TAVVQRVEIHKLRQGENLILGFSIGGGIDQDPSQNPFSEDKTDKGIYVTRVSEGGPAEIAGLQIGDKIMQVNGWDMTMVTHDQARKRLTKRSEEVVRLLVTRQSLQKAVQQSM

[19] = biological target: T8, NHERF3_1, Q5T2W1
T8 sequence (Q5T2W1 4-100, limits assumed, looked up): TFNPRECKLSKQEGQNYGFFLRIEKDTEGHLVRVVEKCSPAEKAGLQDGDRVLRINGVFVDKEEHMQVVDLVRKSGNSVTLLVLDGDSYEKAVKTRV

[20] = biological target: T9, SNTB1, Q13884
T9 sequence (Q13884 107-205, limits assumed, looked up): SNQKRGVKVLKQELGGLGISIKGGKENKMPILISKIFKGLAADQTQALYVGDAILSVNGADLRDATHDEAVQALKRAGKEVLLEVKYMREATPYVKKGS

[21] = biological target: GRIP2_5, Q9C0E4
[22] = biological target: T10, MPP2, Q14168
T10 sequence (Q14168 180-250, limits assumed, looked up): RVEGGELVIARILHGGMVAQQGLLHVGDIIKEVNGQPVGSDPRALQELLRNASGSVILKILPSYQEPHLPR

[23] = biological target: T11, LRRC7, Q96NW7
T11 sequence (Q96NW7 1440-1537, limits assumed, looked up): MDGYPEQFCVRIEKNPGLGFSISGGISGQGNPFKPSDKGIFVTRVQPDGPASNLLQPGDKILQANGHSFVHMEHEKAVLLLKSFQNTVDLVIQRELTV

[24] = biological target: Inadl_1, Q8NI35
[25] = biological target: DLG2_2, Q15700
[26] = biological target: DLG2_3, Q15700
[27] = plain residues with an end cap or a label only (N-terminal biotin on a linker: ado-ado)
[28] = plain residues with an end cap or a label only (N-terminal biotin on a linker: ttds)
[29] = plain residues with an end cap or a label only (N-terminal biotin on a linker: none)
[30] = plain residues with an end cap or a label only (N-terminal biotin on a linker: gsgsgs; C-terminal amide)

GRIP2_3, Q9C0E4, sequence (Q9C0E4 238-339): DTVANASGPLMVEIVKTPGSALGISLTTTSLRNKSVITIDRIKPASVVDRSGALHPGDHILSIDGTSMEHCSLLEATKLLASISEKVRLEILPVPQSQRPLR
SCRIB_2, Q14160, sequence (Q14160 857-960): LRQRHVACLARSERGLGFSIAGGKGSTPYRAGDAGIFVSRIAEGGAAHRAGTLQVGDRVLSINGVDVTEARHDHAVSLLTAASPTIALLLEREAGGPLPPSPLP
MAST2, Q6P0Q8, sequence (Q6P0Q8 1099-1202): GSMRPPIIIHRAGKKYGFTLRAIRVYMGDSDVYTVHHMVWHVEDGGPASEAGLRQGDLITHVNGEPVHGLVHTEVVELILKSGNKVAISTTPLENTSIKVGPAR
PDLIM1, O00151, sequence (O00151 1-87): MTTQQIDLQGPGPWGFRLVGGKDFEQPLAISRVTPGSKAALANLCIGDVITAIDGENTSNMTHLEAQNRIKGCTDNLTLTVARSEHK
TJP1_2, Q07157, sequence (Q07157 181-274): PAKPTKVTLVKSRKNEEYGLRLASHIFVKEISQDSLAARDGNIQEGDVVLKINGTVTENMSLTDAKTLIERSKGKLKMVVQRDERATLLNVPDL
GRIP2_6, Q9C0E4, sequence (Q9C0E4 648-740): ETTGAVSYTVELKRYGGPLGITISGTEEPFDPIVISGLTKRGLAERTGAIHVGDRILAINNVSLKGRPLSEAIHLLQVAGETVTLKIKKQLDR
GRIP2_5, Q9C0E4, sequence (Q9C0E4 544-642): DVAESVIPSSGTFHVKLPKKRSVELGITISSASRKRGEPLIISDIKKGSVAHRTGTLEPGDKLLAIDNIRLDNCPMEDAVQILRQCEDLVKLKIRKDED
Inadl_1, Q8NI35, sequence (Q8NI35 113-229): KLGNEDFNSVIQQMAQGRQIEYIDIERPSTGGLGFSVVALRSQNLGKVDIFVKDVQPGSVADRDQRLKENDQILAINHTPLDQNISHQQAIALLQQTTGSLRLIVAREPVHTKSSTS
ARHGEF12, Q9NZN5-2, sequence (Q9NZN5 other isoform, or with tags, fused parts or gaps): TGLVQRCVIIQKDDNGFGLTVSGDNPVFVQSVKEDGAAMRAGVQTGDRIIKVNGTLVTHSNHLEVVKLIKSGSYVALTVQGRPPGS
FRMPD2_1, Q68DX3, sequence (Q68DX3 770-861): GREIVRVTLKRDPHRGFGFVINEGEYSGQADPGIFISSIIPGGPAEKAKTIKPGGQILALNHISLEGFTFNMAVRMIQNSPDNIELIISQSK
LNX1_3, Q8TBB1, sequence (Q8TBB1 500-596): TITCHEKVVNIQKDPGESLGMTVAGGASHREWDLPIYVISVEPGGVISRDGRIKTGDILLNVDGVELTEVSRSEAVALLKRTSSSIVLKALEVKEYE
LDB3, O75112, sequence (O75112 1-94): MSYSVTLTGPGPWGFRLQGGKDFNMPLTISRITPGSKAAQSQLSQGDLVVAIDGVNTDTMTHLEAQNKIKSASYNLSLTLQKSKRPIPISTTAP

LHLHGTGIQV [EPHA7, Q15375]
pKd [1, 27]: 4.19
pKd [2, 27]: below the threshold
pKd [3, 27]: below the threshold
pKd [4, 27]: 4.63
pKd [5, 27]: 5.03
pKd [6, 27]: below the threshold
pKd [7, 27]: 3.88
pKd [8, 27]: below the threshold
pKd [9, 27]: below the threshold
pKd [10, 27]: 4.46
pKd [11, 27]: below the threshold
pKd [12, 27]: 3.81
pKd [13, 27]: 3.81
pKd [14, 27]: 3.48
pKd [15, 27]: 4.1
pKd [16, 27]: 4.43
pKd [17, 27]: below the threshold
pKd [18, 27]: 4.12
pKd [19, 27]: below the threshold
pKd [20, 27]: below the threshold
pKd [21, 27]: 3.55
pKd [22, 27]: below the threshold
pKd [23, 27]: below the threshold
pKd [24, 27]: below the threshold
pKd [25, 27]: below the threshold
pKd [26, 27]: below the threshold

HRTCYLVTQL [ASIC3, Q9UHC3]
pKd [1, 28]: 5.63
pKd [2, 28]: below the threshold
pKd [3, 28]: 3.38
pKd [4, 28]: 5.24
pKd [5, 28]: 3.37
pKd [6, 28]: 3.46
pKd [7, 28]: 3.45
pKd [8, 28]: 3.73
pKd [9, 28]: below the threshold
pKd [10, 28]: 4.55
pKd [11, 28]: 4.08
pKd [12, 28]: 3.22
pKd [13, 28]: 4.69
pKd [14, 28]: 3.55
pKd [15, 28]: 4.83
pKd [16, 28]: below the threshold
pKd [17, 28]: 3.34
pKd [18, 28]: 5.08
pKd [19, 28]: 4.8
pKd [20, 28]: 4.07
pKd [21, 28]: 4.31
pKd [22, 28]: below the threshold
pKd [23, 28]: 4.04
pKd [24, 28]: 3.52
pKd [25, 28]: 3.93
pKd [26, 28]: 4.17

DSKPPLPPDEWV [MERS-E, K9N5R3]
pKd [1, 29]: 3.76
pKd [2, 29]: below the threshold
pKd [3, 29]: below the threshold
pKd [4, 29]: 3.66
pKd [5, 29]: below the threshold
pKd [6, 29]: below the threshold
pKd [7, 29]: below the threshold
pKd [8, 29]: 3.58
pKd [9, 29]: 3.52
pKd [10, 29]: 4.57
pKd [11, 29]: below the threshold
pKd [12, 29]: below the threshold
pKd [13, 29]: below the threshold
pKd [14, 29]: below the threshold
pKd [15, 29]: 3.68
pKd [16, 29]: 4.16
pKd [17, 29]: below the threshold
pKd [18, 29]: 3.7
pKd [19, 29]: below the threshold
pKd [20, 29]: 3.8
pKd [21, 29]: below the threshold
pKd [22, 29]: below the threshold
pKd [23, 29]: 4.4
pKd [24, 29]: 3.61
pKd [25, 29]: below the threshold
pKd [26, 29]: below the threshold

TGDTLEKFVEGL [CBP, Q92793]
pKd [1, 28]: below the threshold
pKd [2, 28]: below the threshold
pKd [3, 28]: below the threshold
pKd [4, 28]: below the threshold
pKd [5, 28]: below the threshold
pKd [6, 28]: below the threshold
pKd [7, 28]: below the threshold
pKd [8, 28]: below the threshold
pKd [9, 28]: below the threshold
pKd [10, 28]: below the threshold
pKd [11, 28]: below the threshold
pKd [12, 28]: below the threshold
pKd [13, 28]: below the threshold
pKd [14, 28]: below the threshold
pKd [15, 28]: below the threshold
pKd [16, 28]: below the threshold
pKd [17, 28]: below the threshold
pKd [18, 28]: 4.03
pKd [19, 28]: below the threshold
pKd [20, 28]: below the threshold
pKd [21, 28]: below the threshold
pKd [22, 28]: below the threshold
pKd [23, 28]: below the threshold
pKd [24, 28]: below the threshold
pKd [25, 28]: below the threshold
pKd [26, 28]: below the threshold

ELIQDTSTSFSTTREW [ARAP3_int, Q8WWN8]
pKd [1, 30]: below the threshold
pKd [2, 30]: below the threshold
pKd [3, 30]: 3.67
pKd [4, 30]: below the threshold
pKd [5, 30]: below the threshold
pKd [6, 30]: below the threshold
pKd [7, 30]: 3.69
pKd [8, 30]: below the threshold
pKd [9, 30]: below the threshold
pKd [10, 30]: below the threshold
pKd [11, 30]: below the threshold
pKd [12, 30]: below the threshold
pKd [13, 30]: below the threshold
pKd [14, 30]: below the threshold
pKd [15, 30]: below the threshold
pKd [16, 30]: below the threshold
pKd [17, 30]: below the threshold
pKd [18, 30]: 3.92
pKd [19, 30]: below the threshold
pKd [20, 30]: below the threshold
pKd [21, 30]: below the threshold
pKd [22, 30]: below the threshold
pKd [23, 30]: below the threshold
pKd [24, 30]: below the threshold
pKd [25, 30]: below the threshold
pKd [26, 30]: 3.69
